Reference: US5633451

Biological target: Dendroides canadensis thermal hysteresis proteins (purified THPs)

Substance	Thermal Hysteresis (°C.) of a 4 mg/ml THP solution
Gelatin	3.13 °C.
Tipula lipoprotein ice-nucleator (LPIN)	3.49 °C.
Tipula ice-nucleator protein PIN	3.98 °C.
